Paper PMC4933246, “Alanine Expansions Associated with Congenital Central Hypoventilation Syndrome Impair PHOX2B Homeodomain-mediated Dimerization and Nuclear Import*” (The Journal of Biological Chemistry, 2016)

Target: the molecule itself
Test: two-hybrid; mammalian two-hybrid (CheckMate, Promega) in HeLa cells; GAL4 BD fusion (pBIND) and VP16 AD fusion (pACT), 80 fmol each, with 160 fmol pG5LUC; Dual-Luciferase assay

B1: PHOX2A fused to GAL4 BD or VP16 AD (natural protein)
chain: not shown
notes: PHOX2A, human; Each copy carries either GAL4 BD or VP16 AD; also called GAL4 BD-PHOX2A; VP16 AD-PHOX2A; source: mammalian two-hybrid fusion, transfected HeLa cells
  luciferase activity relative to that of the PHOX2B fusion constructs: > 2 fold
